First the molecules themselves.
B1: TPL0039_05_F04 IgG1 (LALA + YTE) (antibody, V domains shown)
VH: QVQLVESGGGVVQPGRSPRLSCAASGFTFSSYGMHWVRQAPGKGLEWVAVISYDGSNKYYADSVKGRFTISRDNSKNTLYLQMNSLRAEDTAVYYCAKDLEYSSSSWGQGTLVTVSS
VL: NFMLTQPHSVSESPGKTVTISCTRSSGSIASNYVQWFQQRPGSSPTTVIYEDDQRPSGVPDRFSGSIDSSSNSASLTISGLKTEDEATYFCQSYDSSTVVFGGGTKVTVL
notes: also called F04(LALA + YTE); copies: 2 + 2
B2: TPL0039_05_G08 IgG1 (LALA + YTE) (antibody, V domains shown)
VH: EVQLVESGGGVVQPGRSLRLSCAASGFTFSSYGMHWVRQAPGKGLEWVAVISYDGSNKYYADSVKGRFTISRDNSKNTLYLQMNSLRAEDTAVYYCARTNYDSGDAFDIWGQGTLVTVSS
VL: NFMLTQPHSVSESPGKTVTISCTRSSGSIASNYVQWYQQRPGSSPTTVIYEDNQRPSGVPDRFSGSIDSSSNSASLTISGLKTEDEADYYCQSYDSSTVVFGGGTKLTVL
notes: also called G08(LALA + YTE); copies: 2 + 2
B3: TPL0039_05_E02 Fab (Fab, V domains shown)
VH: QVQLLESGGGLVQPGRSLRLSCAASGFTFSSYGLHWVRQAPGKGLEWVAVISYDGSNKYYADSVKGRFTISRDNSKNTLYLQMNSLRAEDTAVYYCASTLQQLDAFDIWGQGTLVTVSS
VL: NFMLTQPHSVSESPGKTVTISCTRSSGSIASNYVQWYQQRPGTSPTIMIYEDNQRPSGVPDRFSGAIDSSSNSASLTISGLKTEDEADYYCQSYDSSSVVFGGGTKVTVL
notes: also called Fab E02; source: Expi293F, transient expression, purified (anti-CH1 resin, desalted into PBS)
B4: TPL0039_05_B12 IgG1 (LALA + YTE) (antibody, V domains shown)
VH: EVQLVESGGGVVQPGRSLRLSCAASGFTFSSYGMHWVRQAPGKGLEWVAVISYDGSNKYYADSVKGRFTISRDNSKNTLYLQMNSLRAEDTAVYYCAGWTEGDAFDIWGQGTLVTVSS
VL: NFMLTQPHSVSESPGKTVTISCTRSSGSIASNYVQWYQQRPGSAPSTVIYEDNRRPSGVPDRFSGSIDSASNSASLTISGLKTEDEADYYCQSYDSSSVVFGGGTKITVL
notes: also called B12(LALA + YTE); copies: 2 + 2
B5: TPL0039_05_A03 IgG1 (LALA + YTE) (antibody, V domains shown)
VH: QVQLVESGGGLAKPGRSLRLSCAVSGFTFSSYGMHWVRQAPGKGLEWVAVISYDGSNKYYADSVKGRFTISRDNSKNTLYLQMNSLRAEDTAVYYCASTLQQLDAFDIWGQGTMVTVSS
VL: NFMLTQPHSVSESPGKTITISCTRSSGSIASNYVQWYQQRPGSVPTPVIYEDDRRPSGVPDRFSGSIDSSSNSASLTISGLKTEDEADYYCQSYDSSSVVFGGGTKITVL
notes: also called A03(LALA + YTE); copies: 2 + 2
B6: TPL0039_05_E02 IgG1 (LALA + YTE) (antibody, V domains shown)
VH: QVQLLESGGGLVQPGRSLRLSCAASGFTFSSYGLHWVRQAPGKGLEWVAVISYDGSNKYYADSVKGRFTISRDNSKNTLYLQMNSLRAEDTAVYYCASTLQQLDAFDIWGQGTLVTVSS
VL: NFMLTQPHSVSESPGKTVTISCTRSSGSIASNYVQWYQQRPGTSPTIMIYEDNQRPSGVPDRFSGAIDSSSNSASLTISGLKTEDEADYYCQSYDSSSVVFGGGTKVTVL
notes: also called E02(LALA + YTE); copies: 2 + 2
B7: TPL0039_05_B04 IgG1 (LALA + YTE) (antibody, V domains shown)
VH: EVQLLESGGGVVQPGRSLRLSCAASGFTFSSYGMHWVRQAPGKGLEWVAVISYDGSNKYYADSVKGRFTISRDNSKNTLYLQMNSLRAEDTAVYYCARVGENEAFDIWGQGTMVTVSS
VL: NFMLTQPHSVSESPGKTVTISCTRSSGSIARNYVQWYQQRPGSAPTTVIYEDNQRPSGVPDRFSGSIDSSSNSASLTISGLKTEDEADYYCQSYDSSTVVFGGGTKLTVL
notes: also called B04(LALA + YTE); copies: 2 + 2
B8: E02(Fab) (Fab, V domains shown)
VH: QVQLLESGGGLVQPGRSLRLSCAASGFTFSSYGLHWVRQAPGKGLEWVAVISYDGSNKYYADSVKGRFTISRDNSKNTLYLQMNSLRAEDTAVYYCASTLQQLDAFDIWGQGTLVTVSS
VL: NFMLTQPHSVSESPGKTVTISCTRSSGSIASNYVQWYQQRPGTSPTIMIYEDNQRPSGVPDRFSGAIDSSSNSASLTISGLKTEDEADYYCQSYDSSSVVFGGGTKVTVL
notes: also called TPL0039_05_E02
B9: E02(LALA + YTE) human IgG1 (antibody, V domains shown)
VH: QVQLLESGGGLVQPGRSLRLSCAASGFTFSSYGLHWVRQAPGKGLEWVAVISYDGSNKYYADSVKGRFTISRDNSKNTLYLQMNSLRAEDTAVYYCASTLQQLDAFDIWGQGTLVTVSS
VL: NFMLTQPHSVSESPGKTVTISCTRSSGSIASNYVQWYQQRPGTSPTIMIYEDNQRPSGVPDRFSGAIDSSSNSASLTISGLKTEDEADYYCQSYDSSSVVFGGGTKVTVL
notes: also called TPL0039_05_E02

The target in one test is T1, myotoxin II from Bothrops asper (Bothrops asper, UniProt P24605).
T1 construct: also called Mt; M2; source: purified from Bothrops asper venom (CM-Sephadex C25, RP-HPLC), biotinylated
Briefly: BLI; […]) biosensors ([…] (0, 1, 10, 100 nM; […]. The settings on record: both partners purified.
T1 sequence (P24605 17-137): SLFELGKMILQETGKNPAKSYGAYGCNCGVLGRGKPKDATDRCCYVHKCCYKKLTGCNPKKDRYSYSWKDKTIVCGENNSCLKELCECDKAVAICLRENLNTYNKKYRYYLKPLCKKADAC
As for B1, the Kd amounted to 0.0181 nM, the koff was 1.31e-05 s⁻¹ and the kon stood at 723000 M⁻¹ s⁻¹.
The matching figures for B2: less than 0.001 nM, less than 1e-07 s⁻¹ and 245000 M⁻¹ s⁻¹.
B3: the koff turned out to be 0.000872 s⁻¹ and the on-rate (kon) was 360000 M⁻¹ s⁻¹.
In turn, B4 displayed a dissociation constant Kd of less than 0.001 nM, a koff of less than 1e-07 s⁻¹ and a kon of 685000 M⁻¹ s⁻¹.
The corresponding values for B5 are less than 0.001 nM, less than 1e-07 s⁻¹ and 648000 M⁻¹ s⁻¹.
Consider B6, for which the koff is less than 1e-07 s⁻¹ and the kon amounted to 491000 M⁻¹ s⁻¹.
Molecule B7 registered a Kd of 0.0758 nM, a koff of 6.53e-05 s⁻¹ and a kon of 861000 M⁻¹ s⁻¹.

A further test concerns the target T2, myotoxin II from Bothrops asper (Bothrops asper, UniProt P24605).
T2 construct: also called Mt; Lys49 PLA2-like toxin
Briefly: BLI; […]) biosensors; Fab or IgG at 0, 1, 10 and 100 nM; 600 s association, 600 s dissociation; […]; 1:1 binding model, […]. Conditions: both partners purified.
T2 sequence (P24605 17-137): as above
The molecule B8 displayed a dissociation constant Kd of 2.4 nM.
The same measure, in the same setting: as for B9, the figure is less than 0.001 nM.

(Values after publication PMC10791742 (Nature Communications, 2024).)
